Measurements as given in US20210101998A1 (Pfizer, published 2021).
Residue numbers refer to the chain shown, from its start. Read-outs that look alike come from different tables or passages of the source.

B1: mu-hu 4D8 chimera (antibody, human IgG1, kappa)
light: DIVMTQSHKFMSTSVGDRVSITCKASQDVHTAVAWYQQKPGQSPRLLIYWASTRHTGVPDRFTGCGSGTDYTLTISSVQAEDLALYYCQQHYTTPYTFGGGTKLEMKRTVAAPSVFIFPPSDEQLKSGTASVVCLLNNFYPREAKVQWKVDNALQSGNSQESVTEQDSKDSTYSLSSTLTLSKADYEKHKVYACEVTHQGLSSPVTKSFNRGEC
heavy: EVLLQQSGPELVKPGASVKIPCKASGYTFTDYNLDWVKQSHGKSLEWIGDINPINGATLYNQKFKGKATLTVDQSSSTAYMELRSLTSEDTAVYYCSIYYGDYDAMDYWGQGASVTVSSASTKGPSVFPLAPSSKSTSGGTAALGCLVKDYFPEPVTVSWNSGALTSGVHTFPAVLQSSGLYSLSSVVTVPSSSLGTQTYICNVNHKPSNTKVDKKVEPKSCDKTHTCPPCPAPEAAGAPSVFLFPPKPKDTLMISRTPEVTCVVVDVSHEDPEVKFNWYVDGVEVHNAKTKPREEQYNSTYRVVSVLTVLHQDWLNGKEYKCKVSNKALPAPIEKTISKAKGQPREPQVYTLPPSREEMTKNQVSLTCLVKGFYPSDIAVEWESNGQPENNYKTTPPVLDSDGSFFLYSKLTVDKSRWQQGNVFSCSVMHEALHNHYTQKSLSLSPG
notes: Mouse variable regions on human IgG1 3M and human kappa; also called hu-mu 4D8 chimera; mouse-human chimeric antibody 4D8
B2: 2A8 (antibody, human IgG1, lambda, V domains shown)
VH: QVQLVESGGGLVQPGGSLRLSCAASGFTFRSYGMSWVRQAPGKGLEWVSSIRGSSSSTYYADSVKGRFTISRDNSKNTLYLQMNSLRAEDTAVYYCARKYRYWFDYWGQGTLVTVSS
VL: DIELTQPPSVSVAPGQTARISCSGDNLRNYYAHWYQQKPGQAPVVVIYYDNNRPSGIPERFSGSNSGNTATLTISGTQAEDEADYYCQSWDDGVPVFGGGTKLTVLG
B3: 2A8-200 (antibody, human IgG1, lambda, V domains shown)
VH: B2 VH with S35D, S55R, K99L
VL: B2 VL with Y48F, N51V, D91W
notes: also called Anti-TFPI-2A8-200
B4: TFPI-23 (antibody, human IgG1, lambda)
light: QSVLTQPPSVSGAPGQRVTISCTGSSSNIGAGYDVHWYQQLPGTAPKLLIYGNSNRPSGVPDRFSGSKSGTSASLAITGLQAEDEADYYCQSYDSSLSGSGVFGGGTKLTVLGQPKAAPSVTLFPPSSEELQANKATLVCLISDFYPGAVTVAWKADSSPVKAGVETTTPSKQSNNKYAASSYLSLTPEQWKSHRSYSCQVTHEGSTVEKTVAPTECS
heavy: not shown
notes: Human IgG1-3M from phage display; also called mAb-TFPI-23; clone 23
B5: TFPI-106 (antibody, human IgG1, lambda)
light: B4 light
heavy: not shown

Experiments:
humTFPI K1K2 [1] = biological target: T1, humTFPI K1K2 (human); assay: SPR, antibody ligand, TFPI analyte
T1 construct: Biotinylated on the AviTag for ELISA; also called Human TFPIα K1K2; humTFPI K1K2-aviHis10
Method: (§1) The flow cells were activated by injecting a 1:1 mixture of 400 mM 1-Ethyl-3-(3-dimethylaminopropyl) carbodiimide hydrochloride (EDC) and N-hydroxysuccinimide (NHS) for 7 minutes at a flow rate of 10 μl/minute. Anti-human IgG antibody was diluted to 25 μg/ml in 10 mM Sodium Acetate pH 5.0 and injected over all flow cells for 7 minutes at 10 ul/minute. All flow cells were blocked with 1 M Ethanolamine-HCL (ETH) for 7 minutes at 10 μl/minute. Final immobilization level of the capture antibody was approximately 10,000 resonance units (RU). The running buffer for immobilization and kinetics was 10 mM HEPES pH 7.4, 150 mM NaCl, 3 mM EDTA, 0.05% (v/v) Tween-20 (HBS-EP+). […] Flow cell 1 was used as a reference surface. […] At the end of each cycle, the entire anti-IgG surface was regenerated by a 60 second pulse of 3 M MgCl2. Kinetic assays were conducted at 25° C. at a collection rate of 10 Hz on a BIAcore T200 instrument (GE Healthcare). Rate constants and affinities were determined by fitting the data to a 1:1 model in BIAcore T200 Evaluation software version 1.0 (GE).

rabTFPI K1K2 [2] = biological target: T2, rabTFPI K1K2 (rabbit, limits assumed); assay: SPR, antibody ligand, TFPI analyte
T2 construct: also called Rabbit TFPI K1K2; rabbit TFPI
T2 chain: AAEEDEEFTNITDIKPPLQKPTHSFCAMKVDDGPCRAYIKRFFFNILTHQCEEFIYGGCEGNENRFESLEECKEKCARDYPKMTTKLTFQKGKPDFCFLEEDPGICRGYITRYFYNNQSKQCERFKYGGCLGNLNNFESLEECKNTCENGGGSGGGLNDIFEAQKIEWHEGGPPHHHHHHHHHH
Method: as §1

humTFPI K1K2 [3] = biological target: T1, humTFPI K1K2; assay: ELISA, biotinylated TFPI on streptavidin plate
rabTFPI K1K2 [4] = biological target: T2, rabTFPI K1K2; assay: ELISA, biotinylated TFPI on streptavidin plate
cyno TFPI K2 = biological target: T3, cyno TFPI K2 (cynomolgus monkey, UniProt Q28864 116-177 (rhesus entry), limits assumed); assay: not told
T3 construct: K2 fragment cut out of cynTFPI K1K2 with human neutrophil elastase, residual AviTag trimmed with AspN; also called Cynomolgus TFPI K2 domain; cyno K2
Method: Based on buried surface area (BSA) and percent BSA (% BSA) for residues at the Fab TFPI K1K2 interface, the epitope and paratope of the complex were determined.

cyno K1 = biological target: T4, cyno K1 (cynomolgus monkey, UniProt Q28864 29-115 (rhesus entry), limits assumed); assay: not told
T4 construct: also called K1 domain alone
T4 chain: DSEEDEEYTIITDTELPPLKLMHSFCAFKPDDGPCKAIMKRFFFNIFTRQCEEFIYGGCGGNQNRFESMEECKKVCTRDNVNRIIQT

humTFPI K1K2 [5] = biological target: T1, humTFPI K1K2; assay: SPR, antibody ligand, TFPI analyte; remark: listed apart in the source
Method: as §1

murTFPI K1K2 [6] = biological target: T5, murTFPI K1K2 (mouse); assay: SPR, antibody ligand, TFPI analyte;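 as to koff: surface plasmon resonance on a BIAcore T200 at 25 °C, test antibody captured on immobilized anti-human IgG, TFPI K1K2 flowed as analyte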
T5 construct: also called Mouse TFPI K1K2; mouse TFPI
T5 chain: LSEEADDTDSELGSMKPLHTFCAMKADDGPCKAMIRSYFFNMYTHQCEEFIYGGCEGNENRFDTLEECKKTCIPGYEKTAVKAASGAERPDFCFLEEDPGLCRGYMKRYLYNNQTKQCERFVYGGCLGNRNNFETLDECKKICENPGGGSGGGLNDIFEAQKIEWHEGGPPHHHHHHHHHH
Method: as §1

cynTFPI K1K2 [7] = biological target: T6, cynTFPI K1K2 (cynomolgus monkey); assay: SPR, antibody ligand, TFPI analyte;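 also: surface plasmon resonance on a BIAcore T200 at 25 °C, test antibody captured on immobilized anti-human IgG, TFPI K1K2 flowed as analyte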
T6 construct: also called Cynomolgus Monkey TFPI K1K2; cyno TFPI K1K2
Method: as §1

rabTFPI K1K2 [8] = biological target: T2, rabTFPI K1K2; assay: SPR, antibody ligand, TFPI analyte
Method: as §1

humTFPI K1K2 [9] = biological target: T1, humTFPI K1K2; assay: SPR, summary table
Method: as §1

murTFPI K1K2 [10] = biological target: T5, murTFPI K1K2; assay: SPR, summary table
Method: as §1

cynTFPI K1K2 [11] = biological target: T6, cynTFPI K1K2; assay: SPR, summary table
Method: as §1

rabTFPI K1K2 [12] = biological target: T2, rabTFPI K1K2; assay: SPR, summary table
Method: as §1

humTFPI K1K2 [13] = biological target: T1, humTFPI K1K2; assay: cell-based or functional assay
humTFPI K1K2 [14] = biological target: T1, humTFPI K1K2; assay: cell-based or functional assay; remark: listed apart in the source
humTFPI K1K2 [15] = biological target: T1, humTFPI K1K2; assay: SPR, antibody ligand, TFPI analyte; remark: listed apart in the source
murTFPI K1K2 [16] = biological target: T5, murTFPI K1K2; assay: SPR, antibody ligand, TFPI analyte;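 as to koff: surface plasmon resonance on a BIAcore T200 at 25 °C, test antibody captured on immobilized anti-human IgG, TFPI K1K2 flowed as analyte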
humTFPI K1K2 [17] = biological target: T1, humTFPI K1K2; assay: SPR, antibody ligand, TFPI analyte; remark: listed apart in the source
Method: as §1

humTFPI K1K2K3 = humTFPI K1K2K3 (human); assay: cell-based or functional assay
ratTFPI K1K2 [18] = biological target: T7, ratTFPI K1K2 (rat); assay: SPR, summary table
T7 chain: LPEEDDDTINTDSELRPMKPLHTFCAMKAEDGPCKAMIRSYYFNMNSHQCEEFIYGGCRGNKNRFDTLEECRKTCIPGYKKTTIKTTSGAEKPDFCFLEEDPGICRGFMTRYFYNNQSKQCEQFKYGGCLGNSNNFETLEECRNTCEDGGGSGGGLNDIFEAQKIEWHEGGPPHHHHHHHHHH
Method: as §1

ratTFPI K1K2 [19] = biological target: T7, ratTFPI K1K2; assay: SPR, antibody ligand, TFPI analyte;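 also: surface plasmon resonance on a BIAcore T200 at 25 °C, test antibody captured on immobilized anti-human IgG, TFPI K1K2 flowed as analyte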
Method: as §1

Binder | binding result (cyno TFPI K2) | binding result (cyno K1) | Kd (humTFPI K1K2 [5]) [nM] | koff (humTFPI K1K2 [5]) [s⁻¹] | kon (humTFPI K1K2 [5]) [M⁻¹ s⁻¹] | Kd (murTFPI K1K2 [6]) [nM] | koff (murTFPI K1K2 [6]) [s⁻¹] | kon (murTFPI K1K2 [6]) [M⁻¹ s⁻¹] | Kd (cynTFPI K1K2 [7]) [nM] | koff (cynTFPI K1K2 [7]) [s⁻¹] | kon (cynTFPI K1K2 [7]) [M⁻¹ s⁻¹] | Kd (rabTFPI K1K2 [8]) [nM] | koff (rabTFPI K1K2 [8]) [s⁻¹] | kon (rabTFPI K1K2 [8]) [M⁻¹ s⁻¹] | Kd (rabTFPI K1K2 [12]) [nM] | FVIIa/TF/Xa EC50 (humTFPI K1K2 [13]) [nM] | Xa Inhibition Assay EC50 (humTFPI K1K2 [13]) [nM] | also measured
B1 |  |  |  |  |  |  |  |  |  |  |  |  |  |  |  |  |  | Kd (humTFPI K1K2 [1]): 1.19 nM; koff (humTFPI K1K2 [1]): 0.00114 s⁻¹; kon (humTFPI K1K2 [1]): 958000 M⁻¹ s⁻¹; Kd (rabTFPI K1K2 [2]): 0.63 nM; koff (rabTFPI K1K2 [2]): 0.00126 s⁻¹; kon (rabTFPI K1K2 [2]): 2.01e+06 M⁻¹ s⁻¹; EC50 (humTFPI K1K2 [3]): 0.0577 nM; EC50 (rabTFPI K1K2 [4]): 0.068 nM
B2 | no binding | no binding | 10.6 | 0.00377 | 355000 | 33.6 | 0.00632 | 191000 | 13.2 | 0.00306 | 237000 | 1.69 | 0.00123 | 730000 |  |  |  | 
B3 | no binding | no binding | 0.327 | 0.000381 | 1.16e+06 | 0.455 | 0.00117 | 2.54e+06 | 0.637 | 0.000809 | 1.25e+06 | 0.145 | 0.000277 | 1.92e+06 | 0.145 | 4.84 | 2.42 | Kd (humTFPI K1K2 [9]): 0.327 nM; Kd (murTFPI K1K2 [10]): 0.455 nM; Kd (cynTFPI K1K2 [11]): 0.637 nM
B4 |  |  |  |  |  |  |  |  |  |  |  |  |  |  |  |  |  | FXa EC50 (humTFPI K1K2 [14]): 46 nM; FXa-FVIIa EC50 (humTFPI K1K2 [14]): 32.2 nM; Kd (humTFPI K1K2 [15]): 9.89 nM; Kd (murTFPI K1K2 [16]): 1.46 nM; Kd (humTFPI K1K2 [17]): 9.89 nM
B5 |  |  |  |  |  |  |  |  |  |  |  | 4.25 |  |  | 4.25 | 4.3 | 18.1 | EC50, neutralization of FVIIa/TF/FXa inhibition (humTFPI K1K2K3): 8.47 nM; Kd (ratTFPI K1K2 [18]): 1.57 nM; Kd (ratTFPI K1K2 [19]): 1.57 nM
